The record followed here is US10556936B2, “Immunogenic proteins and fragments thereof from allergenic mites” (ALK-ABELLÓ A/S, priority 2016, dated 2020).

What all share (type): cell-based, human
Series [1] concerns basophils in whole blood from HDM allergic donors. Description: Basophil Activation Test (BAT). The following applies: blood from HDM allergic individuals (n=14). Put shortly: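 Whole blood from HDM-allergic donors (n=14) was stimulated for 1 h with test proteins across a concentration range, e.g. 1, 10, 100 or 1000 ng/ml. Basophil surface activation markers were measured by flow cytometry, with Der p 1 and Der p 2 tested at the same concentrations as controls.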

Series [2] deals with PBMC cells obtained from mite allergic patients and non-allergics. Description: Ex vivo stimulation of PBMC: cytokine production (IFN-gamma, IL-9, IL-10, IL-17, IL-31). Put shortly: (§1)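 Freshly isolated PBMC (5×10^6/ml) from mite-allergic patients or non-allergics cultured 5 days with test protein up to 10 ug/ml; IFN-gamma, IL-9, IL-10, IL-17, IL-31 in supernatants by multiplex immunoassay. T cell lines, raised 3 weeks on HDM extract, tested at 0.5 or 2 ug/ml protein in 72 h proliferation assay.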

Series [3] relates to T cell lines obtained from HDM allergic individuals and non-allergics. Description: In vitro T cell proliferation test in T cell lines (Example 3). Particulars: 0.5 or 2 ug/ml, 72 h; for % responders of in-vitro T cell proliferation test, Allergic: T cell lines from HDM allergic individuals (n=30); for % responders of in-vitro T cell proliferation test, Non-allergics: T cell lines from non-allergics (n=8). Put shortly: as §1

B1: A023: house dust mite protein; SEQ ID NO: 23 (Der f), 24 (Der p) (protein)
chain: DPVQQRPTLRGVTVRVGPFVKENNGKFEGFIPDLVQAISEKVGFDYTLYLSPDGRYGNVISDGNVTGMIGEVYNKKADFAAADLTMTEARENYITFTEPFMINQLAALIRREDAEGLNTLEDLAKAQETFPKRKRIVLGTLRNGATNYFLSKSDDPLAKKIYEQIKADDQSVVKSISEGVERVDKQGGYAFIMESASAEHEIANNCKLTMLLDWRNLFPRKYAFALPKDSPYLEHFNNAIKQLNSEGKIAELRRKYWANNCAENKTKDDKN
For B1, the “# of individuals of 14 with positive BAT test” value in series [1] (1 ng/ml) was 1. Besides, the “# of individuals of 14 with positive BAT test” value in series [1] (10 ng/ml) came to 1. In addition, in series [1] (100 ng/ml), the “# of individuals of 14 with positive BAT test” value is 1. In addition, the “# of individuals of 14 with positive BAT test” value in series [1] (1000 ng/ml) was found to be 1. Also, in series [2], the “% HDM allergic individuals with cytokine production in ex-vivo T cell assay IL-5” value is 13%, the “% HDM allergic individuals with cytokine production in ex-vivo T cell assay IL-9” value came to 13%, the “% HDM allergic individuals with cytokine production in ex-vivo T cell assay IL-10” value came out at 6% and the “% HDM allergic individuals with cytokine production in ex-vivo T cell assay IL-13” value was 13%. For the same molecule, in series [2], the “% HDM allergic individuals with cytokine production in ex-vivo T cell assay IL-17” value amounted to 0%, the “% HDM allergic individuals with cytokine production in ex-vivo T cell assay IL-31” value is 0%, the “% HDM allergic individuals with cytokine production in ex-vivo T cell assay INF-g” value is recorded as 0% and the “% non-allergic individuals with cytokine production in ex-vivo T cell assay IL-5” value was found to be 0%. In series [2], the “% non-allergic individuals with cytokine production in ex-vivo T cell assay IL-9” value is on record as 0%, the “% non-allergic individuals with cytokine production in ex-vivo T cell assay IL-10” value is given as 0%, the “% non-allergic individuals with cytokine production in ex-vivo T cell assay IL-13” value is 0% and the “% non-allergic individuals with cytokine production in ex-vivo T cell assay IL-17” value is reported as 0%. Also, in series [2], the “% non-allergic individuals with cytokine production in ex-vivo T cell assay IL-31” value was found to be 0% and the “% non-allergic individuals with cytokine production in ex-vivo T cell assay INF-g” value is 0%. Besides, in series [3], the “% responders of in-vitro T cell proliferation test, Allergic” value was 21% and the “% responders of in-vitro T cell proliferation test, Non-allergics” value (from here on “% responders … Non-allergics”) is on record as 0%.

B2: A025: house dust mite protein; SEQ ID NO: 17 (Der f), 18 (Der p) (protein)
chain: QSLFVDYNDYSCGSSQNETNELIQEFKIFKKNINGNENFKKINDFIEKARLFRDNAAKQMLEIDQQLLTLNVIQISQRIKLENNKIQCEKLTKFSELLSMQLLAYEVGMFEFAEEIDPNIDFDRKMKNFLDETSRLFNLAEFEKLEKKFRNATSIEKLKNYIDGELVALNDYINEFLKDIIMSEFTVQSRYYLNFSIEDQVQIDSTLMTFSALKILLNDLKDYLEHLDN
For the molecule B2, the “# of individuals of 14 with positive BAT test” value in series [1] (1 ng/ml) was found to be 1. Further, the “# of individuals of 14 with positive BAT test” value in series [1] (10 ng/ml) was 1. Moreover, the “# of individuals of 14 with positive BAT test” value in series [1] (100 ng/ml) stood at 1. In series [1] (1000 ng/ml), the “# of individuals of 14 with positive BAT test” value was 5. In series [2], the “% HDM allergic individuals with cytokine production in ex-vivo T cell assay IL-5” value is 13%, the “% HDM allergic individuals with cytokine production in ex-vivo T cell assay IL-9” value came to 6%, the “% HDM allergic individuals with cytokine production in ex-vivo T cell assay IL-10” value was 6% and the “% HDM allergic individuals with cytokine production in ex-vivo T cell assay IL-13” value was 13%. Moreover, in series [2], the “% HDM allergic individuals with cytokine production in ex-vivo T cell assay IL-17” value was 0%, the “% HDM allergic individuals with cytokine production in ex-vivo T cell assay IL-31” value is recorded as 0%, the “% HDM allergic individuals with cytokine production in ex-vivo T cell assay INF-g” value is listed as 0% and the “% non-allergic individuals with cytokine production in ex-vivo T cell assay IL-5” value was determined as 0%. In addition, in series [2], the “% non-allergic individuals with cytokine production in ex-vivo T cell assay IL-9” value came out at 0%, the “% non-allergic individuals with cytokine production in ex-vivo T cell assay IL-10” value was determined as 0%, the “% non-allergic individuals with cytokine production in ex-vivo T cell assay IL-13” value was determined as 0% and the “% non-allergic individuals with cytokine production in ex-vivo T cell assay IL-17” value is given as 0%. Moreover, in series [2], the “% non-allergic individuals with cytokine production in ex-vivo T cell assay IL-31” value is reported as 0% and the “% non-allergic individuals with cytokine production in ex-vivo T cell assay INF-g” value was 0%. Further, in series [3], the “% responders of in-vitro T cell proliferation test, Allergic” value came out at 0% and the “% responders … Non-allergics” value was found to be 0%.

B3: A024: house dust mite protein; SEQ ID NO: 11 (Der f), 12 (Der p), 318 (Blo t) (protein)
chain: MSISAHGGGLVNGIAGMENKFTVFTSGKPVSGLTVAFEGPTKPEINFNSTKDGSVDVGYIPKAGGQYKIHIKYEGKEIVGSPFKCNISGDESTHRKLTEKVKVGGPNISTGKVNQDNQLTIDCKEAGITGGISFAMEGPAKVEVSFRNNNDGTITVIYKPPTPGDYKLHLKFNDIHLPGSPYPIVVSA
Consider B3, for which the “# of individuals of 14 with positive BAT test” value in series [1] (1 ng/ml) was 2. Moreover, the “# of individuals of 14 with positive BAT test” value in series [1] (10 ng/ml) worked out at 2. The “# of individuals of 14 with positive BAT test” value in series [1] (100 ng/ml) stood at 3. In addition, the “# of individuals of 14 with positive BAT test” value in series [1] (1000 ng/ml) is listed as 3. In series [2], the “% HDM allergic individuals with cytokine production in ex-vivo T cell assay IL-5” value is listed as 13%, the “% HDM allergic individuals with cytokine production in ex-vivo T cell assay IL-9” value worked out at 6%, the “% HDM allergic individuals with cytokine production in ex-vivo T cell assay IL-10” value came out at 25% and the “% HDM allergic individuals with cytokine production in ex-vivo T cell assay IL-13” value was found to be 6%. For the same molecule, in series [2], the “% HDM allergic individuals with cytokine production in ex-vivo T cell assay IL-17” value came to 6%, the “% HDM allergic individuals with cytokine production in ex-vivo T cell assay IL-31” value is given as 0%, the “% HDM allergic individuals with cytokine production in ex-vivo T cell assay INF-g” value amounted to 0% and the “% non-allergic individuals with cytokine production in ex-vivo T cell assay IL-5” value was 0%. For the same molecule, in series [2], the “% non-allergic individuals with cytokine production in ex-vivo T cell assay IL-9” value was 0%, the “% non-allergic individuals with cytokine production in ex-vivo T cell assay IL-10” value was 17%, the “% non-allergic individuals with cytokine production in ex-vivo T cell assay IL-13” value was found to be 0% and the “% non-allergic individuals with cytokine production in ex-vivo T cell assay IL-17” value came out at 0%. In addition, in series [2], the “% non-allergic individuals with cytokine production in ex-vivo T cell assay IL-31” value was determined as 0% and the “% non-allergic individuals with cytokine production in ex-vivo T cell assay INF-g” value was determined as 0%. Further, in series [3], the “% responders of in-vitro T cell proliferation test, Allergic” value amounted to 21% and the “% responders … Non-allergics” value turned out to be 0%.
